Target: Htz1(T46C)-2xFLAG (yeast H2A.Z with a cysteine probe) (yeast)
Assay: cross-linking; VivosX: disulfide cross-linking in living yeast cells with 180 uM 4-DPS for 20 min at 30 C; TCA fixation; non-reducing SDS-PAGE and anti-FLAG immunoblot, bands normalised to H4; WT cells (swc2 and swr1 deletion cells also tested, with fewer ZZ and AZ adducts)

| Substance | percent of bulk H2A.Z in the H2A-to-H2A.Z cross-linked adduct (WT cells) [%] | percent of bulk H2A.Z in the H2A.Z-to-H2A.Z cross-linked adduct (WT cells) [%] |
| --- | --- | --- |
| 2xV5-Hta1(N39C) (yeast H2A with a cysteine probe) (natural protein) | 57 | – |
| Htz1(T46C)-2xFLAG (yeast H2A.Z with a cysteine probe) (natural protein) | – | 12 |

— article PMC12068740
